The chains are these.
B1: 14-3-3σ, full-length, recombinant (natural protein)
chain: MERASLIQKAKLAEQAERYEDMAAFMKGAVEKGEELSCEERNLLSVAYKNVVGGQRAAWRVLSSIEQKSNEEGSEEKGPEVREYREKVETELQGVCDTVLGLLDSHLIKEAGDAESRVFYLKMKGDYYRYLAEVATGDDKKRIIDSARSAYQEAMDISKKEMPPTNPIRLGLALNFSVFHYEIANSPEEAISLAKTTFDEAMADLHTLSEDSYKDSTLIMQLLRDNLTLWTADNAGEEGGEAPQEPQS

Where no end group is shown, it is not given here. [ ]: non-standard residue; d: D form. fluorescein = fluorescein label on the N-terminus; pT = C[C@@H](OP(=O)(O)O)[C@H](N)C(=O)O; pS = N[C@@H](COP(=O)(O)O)C(=O)O; FAM = fluorescein

Here are results for 17 molecules from article PMC7169973 (ACS chemical biology, 2020).

The first assay concerns the target T1, 14-3-3σ, full-length, recombinant (human, UniProt P31947 1-248).
T1 sequence (looked up): B1 chain
Nature of the assay: fluorescence polarisation.
Broadly, the Kd is the free concentration of one partner at which half of the binding sites on the other are occupied at equilibrium, for simple one-to-one binding. In the case of {FAM}-KYYITGEAEGFPA[pT]D (peptide, UniProt P03372 581-595, looked up) [N-FAM-2 variant with C-terminal residue D], the equilibrium dissociation constant (Kd) was 173 µM.

For the molecule {FAM}-KYYITGEAEGFPA[pT]I (peptide, UniProt P03372 581-595, looked up) [N-FAM-2 variant with C-terminal residue I], the Kd was 3.03 µM.

For the molecule {FAM}-KYYITGEAEGFPA[pT]V (peptide, UniProt P03372 581-595, looked up) [fluorescein-labeled N-FAM-ERα-ctp (N-FAM-2)], the dissociation constant Kd stood at 3.61 µM.

Consider {FAM}-KYYITGEAEGFPA[pT]G (peptide, UniProt P03372 581-595, looked up) [N-FAM-2 variant with C-terminal residue G], for which the dissociation constant Kd worked out at 144 µM.

On to {FAM}-KYYITGEAEGFPA[pT]N (peptide, UniProt P03372 581-595, looked up) [N-FAM-2 variant with C-terminal residue N], for which the dissociation constant (Kd) was determined as 59.5 µM.

Regarding {FAM}-KYYITGEAEGFPA[pT]L (peptide, UniProt P03372 581-595, looked up) [N-FAM-2 variant with C-terminal residue L], the Kd was determined as 11 µM.

Regarding {FAM}-KYYITGEAEGFPA[pT]T (peptide, UniProt P03372 581-595, looked up) [N-FAM-2 variant with C-terminal residue T], the dissociation constant Kd came to 50 µM.

As to {FAM}-KYYITGEAEGFPA[pT]S (peptide, UniProt P03372 581-595, looked up) [N-FAM-2 variant with C-terminal residue S], the Kd was 79.8 µM.

On to {FAM}-KYYITGEAEGFPA[pT]F (peptide, UniProt P03372 581-595, looked up) [N-FAM-2 variant with C-terminal residue F], for which the dissociation constant Kd was determined as 10.5 µM.

As to {FAM}-KYYITGEAEGFPA[pT]A (peptide, UniProt P03372 581-595, looked up) [N-FAM-2 variant with C-terminal residue A], the Kd worked out at 19.9 µM.

Another assay deals with T1, 14-3-3σ, full-length, recombinant. Description: fluorescence polarisation. The source holds these as a separate data set. Background: Fluorescence polarisation rises when a labelled molecule tumbles more slowly, as on binding a larger partner.
Regarding fluorescein-ARSW[pT]F-OH [IRL9-ctp, fluorescein-labeled hexaphosphopeptide ARSWpTF-COOH], the Kd came out at 3.16 µM.

Consider fluorescein-KRSV[pS]L-OH [GPR15-ctp, fluorescein-labeled hexaphosphopeptide KRSVpSL-COOH], for which the Kd turned out to be 7.36 µM.

As to fluorescein-YSGH[pS]L-OH [GpIBα-ctp, fluorescein-labeled hexaphosphopeptide YSGHpSL-COOH], the Kd is 22.5 µM.

For fluorescein-ALRRQ[pT]-OH [p27Kip1-ctp, fluorescein-labeled hexaphosphopeptide ALRRQpT-COOH], the dissociation constant (Kd) is 82.2 µM.

For the molecule fluorescein-RKKR[pS]V-OH [Task3-ctp, fluorescein-labeled hexaphosphopeptide RKKRpSV-COOH], the Kd worked out at 3.15 µM.

The next assay shares this target. Description: ITC.
KYYITGEAEGFPA[pT]V (peptide, UniProt P03372 581-595, looked up) [ERα C-terminal phospholigand (ERα-ctp, 2)]: the equilibrium dissociation constant (Kd) is 20 nM.

The next assay addresses fluorescein-labeled TNFRSF19-ctp (4) (human). Nature of the assay: fluorescence polarisation.
B1 displayed an equilibrium dissociation constant (Kd) of 38 µM.

A further assay concerns the target fluorescein-labeled Nup160-ctp (3) (human). Nature of the assay: fluorescence polarisation.
In turn, B1 had a Kd of 250 nM.

In another assay the target is T1, 14-3-3σ, full-length, recombinant. Description: ITC. The source holds these as a separate data set. In general terms: In ITC the heat of successive injections is recorded.
As to KYYITGEAEGFPA[pT]V (peptide, UniProt P03372 581-595, looked up) [ERα C-terminal phospholigand (ERα-ctp, 2)], the Kd worked out at 750 nM.

In another assay the target is fluorescein-labeled TNFRSF19-ctp (4) (human). Description: fluorescence polarisation. This is another data set of the same source.
Take B1: the Kd came out at 538 µM.

A further assay addresses fluorescein-labeled Nup160-ctp (3) (human). Description: fluorescence polarisation. The source holds these as a separate data set.
B1 showed a Kd of 5.34 µM.

A further assay addresses T1, 14-3-3σ, full-length, recombinant. Nature of the assay: fluorescence polarisation. The source holds these as a separate data set.
Consider fluorescein-ARSW[pT]F-OH [IRL9-ctp, fluorescein-labeled hexaphosphopeptide ARSWpTF-COOH], for which the dissociation constant (Kd) stood at 1540 nM.

Turning to fluorescein-KRSV[pS]L-OH [GPR15-ctp, fluorescein-labeled hexaphosphopeptide KRSVpSL-COOH], the Kd turned out to be 1100 nM.

Turning to fluorescein-YSGH[pS]L-OH [GpIBα-ctp, fluorescein-labeled hexaphosphopeptide YSGHpSL-COOH], the Kd amounted to 1690 nM.

As to fluorescein-ALRRQ[pT]-OH [p27Kip1-ctp, fluorescein-labeled hexaphosphopeptide ALRRQpT-COOH], the equilibrium dissociation constant (Kd) was found to be 39900 nM.

For the molecule fluorescein-RKKR[pS]V-OH [Task3-ctp, fluorescein-labeled hexaphosphopeptide RKKRpSV-COOH], the equilibrium dissociation constant (Kd) was 100 nM.

A further assay shares this target. Nature of the assay: fluorescence polarisation. This is another data set of the same source.
{FAM}-KYYITGEAEGFPA[pT]D (peptide, UniProt P03372 581-595, looked up) [N-FAM-2 variant with C-terminal residue D]: the equilibrium dissociation constant (Kd) worked out at 48200 nM.

With {FAM}-KYYITGEAEGFPA[pT]I (peptide, UniProt P03372 581-595, looked up) [N-FAM-2 variant with C-terminal residue I], the Kd was found to be 60 nM.

Consider {FAM}-KYYITGEAEGFPA[pT]V (peptide, UniProt P03372 581-595, looked up) [fluorescein-labeled N-FAM-ERα-ctp (N-FAM-2)], for which the Kd came out at 50 nM.

Turning to {FAM}-KYYITGEAEGFPA[pT]G (peptide, UniProt P03372 581-595, looked up) [N-FAM-2 variant with C-terminal residue G], the Kd was found to be 36500 nM.

For the molecule {FAM}-KYYITGEAEGFPA[pT]N (peptide, UniProt P03372 581-595, looked up) [N-FAM-2 variant with C-terminal residue N], the Kd is 32400 nM.

Regarding {FAM}-KYYITGEAEGFPA[pT]L (peptide, UniProt P03372 581-595, looked up) [N-FAM-2 variant with C-terminal residue L], the Kd turned out to be 170 nM.

With {FAM}-KYYITGEAEGFPA[pT]T (peptide, UniProt P03372 581-595, looked up) [N-FAM-2 variant with C-terminal residue T], the equilibrium dissociation constant (Kd) was 1320 nM.

{FAM}-KYYITGEAEGFPA[pT]S (peptide, UniProt P03372 581-595, looked up) [N-FAM-2 variant with C-terminal residue S]: the dissociation constant Kd was 3540 nM.

In the case of {FAM}-KYYITGEAEGFPA[pT]F (peptide, UniProt P03372 581-595, looked up) [N-FAM-2 variant with C-terminal residue F], the Kd was determined as 4030 nM.

{FAM}-KYYITGEAEGFPA[pT]A (peptide, UniProt P03372 581-595, looked up) [N-FAM-2 variant with C-terminal residue A]: the Kd turned out to be 700 nM.
